T1: recombinant human LRP-6 Fc Chimera Protein (R&D, 1505-LR-025) (human, UniProt O75581 20-1370)
T1 construct: human LRP6 part of a commercial Fc chimera; also called LRP6 (1505-LR-025); source: bought: R&D
T1 sequence (looked up): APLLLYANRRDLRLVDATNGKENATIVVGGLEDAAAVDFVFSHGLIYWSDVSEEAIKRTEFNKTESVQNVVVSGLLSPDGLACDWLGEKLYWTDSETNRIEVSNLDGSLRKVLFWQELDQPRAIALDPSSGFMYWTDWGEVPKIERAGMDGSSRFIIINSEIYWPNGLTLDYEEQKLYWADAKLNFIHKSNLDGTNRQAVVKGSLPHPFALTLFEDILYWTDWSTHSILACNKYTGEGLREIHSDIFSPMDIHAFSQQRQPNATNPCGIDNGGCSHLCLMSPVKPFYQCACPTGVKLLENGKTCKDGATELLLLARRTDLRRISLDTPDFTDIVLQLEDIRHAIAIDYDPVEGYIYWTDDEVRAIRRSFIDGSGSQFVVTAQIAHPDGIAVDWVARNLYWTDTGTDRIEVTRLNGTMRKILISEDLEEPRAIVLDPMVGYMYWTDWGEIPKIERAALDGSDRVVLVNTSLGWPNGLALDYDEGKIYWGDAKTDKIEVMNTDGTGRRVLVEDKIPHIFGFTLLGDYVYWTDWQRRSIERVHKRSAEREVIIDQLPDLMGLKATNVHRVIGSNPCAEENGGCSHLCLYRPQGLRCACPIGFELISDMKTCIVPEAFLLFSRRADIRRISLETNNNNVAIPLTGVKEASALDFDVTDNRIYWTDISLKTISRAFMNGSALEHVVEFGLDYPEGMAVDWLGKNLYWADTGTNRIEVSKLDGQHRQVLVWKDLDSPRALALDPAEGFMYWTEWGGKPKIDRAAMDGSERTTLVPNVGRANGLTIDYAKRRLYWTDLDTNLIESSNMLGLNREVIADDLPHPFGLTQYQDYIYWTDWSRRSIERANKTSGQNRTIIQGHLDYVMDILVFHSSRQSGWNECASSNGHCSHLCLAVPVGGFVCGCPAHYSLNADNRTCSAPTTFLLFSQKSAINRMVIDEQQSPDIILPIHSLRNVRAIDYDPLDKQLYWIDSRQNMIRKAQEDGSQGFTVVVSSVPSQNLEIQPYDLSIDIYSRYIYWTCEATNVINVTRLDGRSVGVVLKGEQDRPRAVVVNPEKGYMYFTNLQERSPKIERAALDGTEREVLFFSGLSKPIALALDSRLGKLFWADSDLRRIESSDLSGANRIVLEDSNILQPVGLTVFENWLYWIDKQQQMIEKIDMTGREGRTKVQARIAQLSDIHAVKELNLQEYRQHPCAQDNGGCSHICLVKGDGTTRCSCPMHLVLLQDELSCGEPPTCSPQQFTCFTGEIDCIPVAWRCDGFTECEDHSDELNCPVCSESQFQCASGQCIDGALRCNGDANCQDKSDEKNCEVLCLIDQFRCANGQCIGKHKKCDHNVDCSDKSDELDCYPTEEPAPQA


Legend:
DKK1 (Homo sapiens) = DKK1 (Homo sapiens) (UniProt O94907); assay: SPR; settings: cited from earlier work
Sequence of DKK1 (Homo sapiens) (O94907 32-266): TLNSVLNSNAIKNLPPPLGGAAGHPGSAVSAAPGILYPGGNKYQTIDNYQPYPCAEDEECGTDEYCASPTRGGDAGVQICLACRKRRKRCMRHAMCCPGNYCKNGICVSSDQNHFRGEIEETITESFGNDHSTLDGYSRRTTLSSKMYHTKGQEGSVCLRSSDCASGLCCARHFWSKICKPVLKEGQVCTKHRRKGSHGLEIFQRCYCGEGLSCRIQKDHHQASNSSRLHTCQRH

[1] = molecular target: T1, recombinant human LRP-6 Fc Chimera …; assay: ELISA; titration ELISA; 5 ug/ml LRP-6 Fc immobilised on the plate at 4 °C for 12 h, blocked with 5% BSA in PBS; VSTM2A His-tag serial dilution (start 100 ug/ml, factor 4) for 2 h at room temperature, in duplicate; interaction fixed by DTSSP; pNPP read at OD405; settings: both partners purified

Kd [1] | Molecule | Kd (DKK1 (Homo sapiens))
– | LRP6 (from UniProt O75581) | 0.6 nM
9.19 nM | Recombinant Human VSTM2A His-tag Protein (R&D, 10037-VT) (ligand, UniProt Q8TAG5 25-236, looked up, human VSTM2A, commercial recombinant protein; also called recombinant VSTM2A; VSTM2A pure protein; source: bought: R&D) SQAKFTEFPRNVTATEGQNVEMSCAFQSGSASVYLEIQWWFLRGPEDLDPGAEGAGAQVELLPDRDPDSDGTKISTVKVQGNDISHKLQISKVRKKDEGLYECRVTDANYGELQEHKAQAYLKVNANSHARRMQAFEASPMWLQDMKPRKNVSAAIPSSIHGSANQRTHSTSSPQVVAKIPKQSPQSGARIATSHGLSVLLLVCGFVKGALL | –

Reference: paper PMC6771244, “VSTM2A suppresses colorectal cancer and antagonizes Wnt signaling receptor LRP6” (Theranostics, 2019)
